Assay results: patent US20040048327A1 (GEORGIA TECH RESEARCH, published 2004)
Numbered stars: 1 amine (or outer) side, 2 acyl side, 3 side chain; on linkers, the order of the positions; unused ones are H or OH. Square brackets hold non-standard residues; d marks the D form. * marks the point of attachment. AAsn = aza-asparagine, NC(=O)CN(N[*:1])C(=O)[*:2]; AAsp = aza-Asp, O=C(N(CC(=O)[*:3])N[*:1])[*:2]; azaAsp = O=C(N(CC(=O)[*:3])N[*:1])[*:2]; PhPr = N-terminal cap as named (PhPr); azaAsn = NC(=O)CN(N[*:1])C(=O)[*:2]; (S,S)‑EP = not defined here; trans‑EP = not defined here; Cbz = O=C(OCc1ccccc1)*

T1: autolytically stable caspase-1 variant (D381 E) (UniProt P29466 120-404, limits assumed)
T1 sequence (looked up): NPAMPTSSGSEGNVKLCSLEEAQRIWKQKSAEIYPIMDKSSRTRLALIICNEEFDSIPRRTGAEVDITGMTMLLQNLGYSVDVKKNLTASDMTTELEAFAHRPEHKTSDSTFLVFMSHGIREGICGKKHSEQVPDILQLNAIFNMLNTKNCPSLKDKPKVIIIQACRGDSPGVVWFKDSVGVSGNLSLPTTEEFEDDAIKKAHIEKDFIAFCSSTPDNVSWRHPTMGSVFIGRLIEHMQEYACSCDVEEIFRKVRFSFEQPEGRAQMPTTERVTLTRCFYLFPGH

T2: caspase-6 (UniProt P55212 24-293, limits assumed)
T2 sequence (looked up): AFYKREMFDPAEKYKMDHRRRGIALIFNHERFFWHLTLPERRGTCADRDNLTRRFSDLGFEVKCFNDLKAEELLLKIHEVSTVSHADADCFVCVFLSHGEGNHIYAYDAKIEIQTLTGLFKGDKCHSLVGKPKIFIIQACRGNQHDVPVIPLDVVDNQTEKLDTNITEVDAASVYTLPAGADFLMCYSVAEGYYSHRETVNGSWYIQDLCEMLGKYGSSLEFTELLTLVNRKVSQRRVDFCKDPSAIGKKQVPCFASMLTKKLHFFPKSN

T3: caspase-3 (UniProt P42574 29-277, limits assumed)
T3 sequence (looked up): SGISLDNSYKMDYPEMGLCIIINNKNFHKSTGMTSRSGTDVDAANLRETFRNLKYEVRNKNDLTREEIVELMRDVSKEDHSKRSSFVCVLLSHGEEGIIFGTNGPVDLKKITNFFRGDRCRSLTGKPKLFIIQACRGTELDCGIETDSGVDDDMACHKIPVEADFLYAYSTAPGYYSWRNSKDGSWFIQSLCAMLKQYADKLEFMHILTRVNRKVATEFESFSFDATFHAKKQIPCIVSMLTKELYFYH

T4: schistosome legumain SmAE (Schistosoma mansoni asparaginyl endopeptidase) (Schistosoma mansoni, UniProt P09841 32-291)
T4 sequence (looked up): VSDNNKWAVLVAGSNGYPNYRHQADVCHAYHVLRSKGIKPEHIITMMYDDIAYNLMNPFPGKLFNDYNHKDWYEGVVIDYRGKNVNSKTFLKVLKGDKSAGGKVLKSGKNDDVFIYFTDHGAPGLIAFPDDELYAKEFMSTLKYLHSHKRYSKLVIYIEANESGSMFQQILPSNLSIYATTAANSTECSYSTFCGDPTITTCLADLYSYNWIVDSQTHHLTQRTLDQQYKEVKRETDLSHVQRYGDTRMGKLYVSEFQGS


Legend:
Experiment in all cases: cell-based or functional assay
[1] = molecular target: T1, autolytically stable caspase-1 variant …
caspase-6 = molecular target: T2, caspase-6
caspase-3 = molecular target: T3, caspase-3
[2] = molecular target: T4, schistosome legumain SmAE (Schistosoma …)
[3] = molecular target: secreted aspartic proteinase 2 (SAP-2) from Candida albicans (Candida albicans)
[4] = molecular target: plasmepsin 2 (from P. falciparum) (P. falciparum, UniProt P46925 125-453, limits assumed)
porcine pepsin = porcine pepsin (porcine, UniProt P00791 60-385)
HIV-1 protease = HIV-1 protease (HIV-1)
human cathepsin D = human cathepsin D (human, UniProt P07339 65-412)
human cathepsin D, sequence (P07339 65-412 limits assumed): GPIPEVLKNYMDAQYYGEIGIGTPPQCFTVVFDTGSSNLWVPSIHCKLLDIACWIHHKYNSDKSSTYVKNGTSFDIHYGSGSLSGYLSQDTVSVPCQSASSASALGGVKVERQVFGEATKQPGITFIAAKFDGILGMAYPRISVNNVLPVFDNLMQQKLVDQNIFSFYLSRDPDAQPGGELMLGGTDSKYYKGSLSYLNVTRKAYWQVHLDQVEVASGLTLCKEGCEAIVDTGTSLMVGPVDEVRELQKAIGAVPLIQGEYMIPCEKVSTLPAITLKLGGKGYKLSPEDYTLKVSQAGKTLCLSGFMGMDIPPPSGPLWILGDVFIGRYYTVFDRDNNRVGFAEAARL

plasmepsin 2 (from P. falciparum), sequence (P46925 125-453 limits assumed): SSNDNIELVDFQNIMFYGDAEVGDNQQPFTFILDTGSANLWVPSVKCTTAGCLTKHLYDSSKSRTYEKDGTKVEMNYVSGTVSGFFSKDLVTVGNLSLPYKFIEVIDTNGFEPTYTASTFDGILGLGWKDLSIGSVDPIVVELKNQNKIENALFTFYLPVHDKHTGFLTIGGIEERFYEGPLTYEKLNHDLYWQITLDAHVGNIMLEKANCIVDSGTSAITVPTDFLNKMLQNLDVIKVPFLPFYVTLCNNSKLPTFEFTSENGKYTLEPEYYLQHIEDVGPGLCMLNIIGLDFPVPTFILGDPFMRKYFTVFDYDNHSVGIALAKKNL
porcine pepsin, sequence (P00791 60-385 limits assumed): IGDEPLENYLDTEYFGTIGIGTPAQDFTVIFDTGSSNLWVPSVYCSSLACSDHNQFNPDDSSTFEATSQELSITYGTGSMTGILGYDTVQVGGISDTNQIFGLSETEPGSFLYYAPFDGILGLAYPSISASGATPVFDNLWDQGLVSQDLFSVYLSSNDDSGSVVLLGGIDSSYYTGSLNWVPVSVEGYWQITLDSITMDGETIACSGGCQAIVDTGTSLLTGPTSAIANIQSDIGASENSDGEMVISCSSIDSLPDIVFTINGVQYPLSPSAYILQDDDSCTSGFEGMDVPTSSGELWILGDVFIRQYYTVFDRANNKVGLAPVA

| Binder | k2 (caspase-6) | k2 (caspase-3) | IC50 [2] | further results |
| --- | --- | --- | --- | --- |
| PhPr-Val-Ala-[AAsp]-{(2S,3S)‑EP‑CON(CH2CH2CH2CH3)2} [PhPr-Val-Ala-AAsp-(2S,3S)-EP-CON(CH2CH2CH2CH3)2] | 53 M⁻¹ s⁻¹ | 520 M⁻¹ s⁻¹ | – | k2 [1]: 26200 M⁻¹ s⁻¹ |
| PhPr-Val-Ala-[AAsp]-{(2S,3S)‑EP‑CON(CH2Ph)2} [PhPr-Val-Ala-AAsp-(2S,3S)-EP-CON(CH2Ph)2] | 145 M⁻¹ s⁻¹ | 830 M⁻¹ s⁻¹ | – | k2 [1]: 101000 M⁻¹ s⁻¹ |
| Cbz-IET[azaAsp]-{(2S,3S)‑EP‑CON(CH2Ph)2} [Cbz-Ile-Glu-Thr-AAsp-(2S,3S)-EP-CON(CH2Ph)2] | 32000 M⁻¹ s⁻¹ | 3550 M⁻¹ s⁻¹ | – | – |
| PhPr-Val-Ala-[AAsp]-{(2S,3S)‑EP‑CON(CH3)CH2Ph} [PhPr-Val-Ala-AAsp-(2S,3S)-EP-CON(CH3)CH2Ph] | 136 M⁻¹ s⁻¹ | 1950 M⁻¹ s⁻¹ | – | – |
| Cbz-IET[azaAsp]-{(2S,3S)‑EP‑CON(CH3)CH2Ph} [Cbz-Ile-Glu-Thr-AAsp-(2S,3S)-EP-CON(CH3)CH2Ph] | 47700 M⁻¹ s⁻¹ | 4780 M⁻¹ s⁻¹ | – | – |
| Cbz-Ala-Ala-[azaAsn]-{(2S,3S)‑EP‑COOEt} [Cbz-Ala-Ala-AAsn-(2S, 3S)-EP-COOEt] | – | – | 53 nM | inhibition of substrate hydrolysis [3]: < 20 % inhibition; inhibition of substrate hydrolysis [4]: < 20 % inhibition; inhibition of substrate hydrolysis (porcine pepsin): < 20 % inhibition; inhibition of substrate hydrolysis (HIV-1 protease): < 20 % inhibition; inhibition of substrate hydrolysis (human cathepsin D): < 20 % inhibition |
| Cbz-Ala-Ala-[AAsn]-{(S,S)‑EP-CON(CH3)CH2Ph} (reading uncertain; also: printed as Cbz-Ala-Ala-AAsn-(S, S)-EP-CON(CH3)CH2Ph) [Cbz-Ala-Ala-AAsn-(S, S)-EP-CON(CH3)CH2Ph] | – | – | 63 nM | – |
| Cbz-Ala-Ala-[AAsn]-{trans‑EP-CH2CH2Ph} (reading uncertain; also: printed as Cbz-Ala-Ala-AAsn-(trans)-EP-CH2CH2Ph) [Cbz-Ala-Ala-AAsn-(trans)-EP-CH2CH2Ph] | – | – | 70 nM | – |
| Cbz-Ala-Ala-[AAsn]-{trans‑EP-Ph‑4‑Cl} (reading uncertain; also: printed as Cbz-Ala-Ala-AAsn-(trans)-EP-Ph-4-Cl) [Cbz-Ala-Ala-AAsn-(trans)-EP-Ph-4-Cl] | – | – | 90 nM | – |
